Assay results as given in patent US20250296960A1, “PEPTIDE COMPOSITIONS AND METHODS OF USE THEREOF” (priority 2022, published 2025).
Read-outs that look alike come from different tables or passages of the source. Numbered stars: 1 amine (or outer) side, 2 acyl side, 3 side chain; on linkers, the order of the positions; unused ones are H or OH. Square brackets hold non-standard residues; d marks the D form. Primed or numbered codes have the meaning given here. Side chains are listed from the residue outwards. Ends that are not written are not given here. Peptide text beside a SMILES is read from it. * marks the point of attachment. C18 = C18 fatty acid (C16-C22 fatty acids conjugated via γGlu/8-amino-3,6-dioxaoctanoic acid spacers); C18″ = C18 fatty acid moiety (of 2OEG-γGlu-C18, K*); Biotin = O=C1N[C@H]2[C@H](CS[C@H]2CCCCC(=O)*)N1; C18 diacid = O=C(O)CCCCCCCCCCCCCCCCC(=O)*; γGlu = O=C(O)[C@H](CCC(=O)[*:2])N[*:1]; AEEA = NCCOCCOCC(=O)O; Aib = CC(C)(N)C(=O)O

T1: human GIPR (Homo sapiens, UniProt P48546)
T1 construct: host or cells: CHO-K1
T1 sequence (P48546 22-466): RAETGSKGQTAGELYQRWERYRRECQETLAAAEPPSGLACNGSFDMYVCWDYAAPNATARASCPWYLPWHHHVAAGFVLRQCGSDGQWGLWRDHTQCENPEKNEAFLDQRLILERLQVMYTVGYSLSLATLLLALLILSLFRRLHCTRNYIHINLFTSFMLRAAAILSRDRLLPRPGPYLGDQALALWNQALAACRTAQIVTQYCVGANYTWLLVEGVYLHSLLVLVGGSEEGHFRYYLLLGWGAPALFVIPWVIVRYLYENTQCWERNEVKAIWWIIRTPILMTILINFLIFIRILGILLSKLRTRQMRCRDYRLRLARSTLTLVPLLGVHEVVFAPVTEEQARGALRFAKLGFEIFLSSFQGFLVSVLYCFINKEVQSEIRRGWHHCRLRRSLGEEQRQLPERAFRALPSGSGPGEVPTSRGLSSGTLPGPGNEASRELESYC

T2: human glucose-dependent insulinotropic polypeptide receptor (GIPR), expressed on CHO-K1 cells (human, UniProt P48546 22-466)
T2 sequence (looked up): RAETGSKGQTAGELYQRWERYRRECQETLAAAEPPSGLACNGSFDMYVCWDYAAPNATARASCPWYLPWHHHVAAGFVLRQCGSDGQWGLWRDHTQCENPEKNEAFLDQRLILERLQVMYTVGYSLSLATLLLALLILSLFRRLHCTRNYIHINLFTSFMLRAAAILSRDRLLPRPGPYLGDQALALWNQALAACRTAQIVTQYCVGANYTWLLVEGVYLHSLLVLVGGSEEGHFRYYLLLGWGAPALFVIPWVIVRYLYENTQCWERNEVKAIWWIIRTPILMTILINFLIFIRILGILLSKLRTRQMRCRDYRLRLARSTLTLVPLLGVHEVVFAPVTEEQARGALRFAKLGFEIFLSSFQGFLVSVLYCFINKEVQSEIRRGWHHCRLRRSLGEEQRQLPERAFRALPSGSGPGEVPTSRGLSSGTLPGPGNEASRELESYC


Assays:
human GLP-1R = molecular target: T3, human GLP-1R (Homo sapiens, UniProt P43220); assay: cAMP assay (HitHunter cAMP) in GLP-1R-expressing CHO-K1 cells (GLP-1R+ cells); type: cell-based; conditions: Table 31
T3 construct: host or cells: CHO-K1
Outline: (§1)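 CHO-K1 cells expressing each receptor were plated overnight, then treated with peptide in cAMP assay buffer for 30 min at 37 °C. cAMP was detected by antibody plus detection solution (1 h) and Solution A (3 h), both at room temperature in the dark. Luminescence was the read-out.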

human GCGR = molecular target: T4, human GCGR (Homo sapiens, UniProt P47871); assay: cAMP assay (HitHunter cAMP) in GCGR-expressing CHO-K1 cells (GCGR+ cells); type: cell-based; conditions: Table 31
T4 construct: host or cells: CHO-K1
Outline: as §1

human GIPR = molecular target: T1, human GIPR; assay: cAMP assay (HitHunter cAMP) in GIPR-expressing CHO-K1 cells (GIPR+ cells); type: cell-based; conditions: Table 31
Outline: as §1

[1] = In vitro enzymatic stability against FaSSIF/P (pancreatin in FaSSIF, pH 6.5); type: in vitro ADME; conditions: simulated gi fluid, pH 6.5, Half-life (min)
Protocol: This study was conducted to determine the enzymatic stability of SEQ ID NOs. 77, 86, 87, 89, 90, and 91 after biotinylation in artificial intestinal environment. The test samples were prepared by mixing stock solutions of peptide and pancreatin dissolved in FaSSIF solution (pH 6.5) in a weight ratio of 25:1. The test samples were incubated at 37° C. for 120 min. The sampling from test samples was proceeded at the predetermined time points (10, 30, 60, and 120 min) and stopped by 10% TFA solution.
Analytical HPLC was performed to determine the remaining amount on an ACQUITY Premier system (Waters, USA) with an ACQUITY CSH C18 column (Waters, USA) at 35° C. using 0.1% TFA in water and acetonitrile. The remaining amount was determined as a percentage of the peak area at the sampling time point relative to the peak area of the initial sample.
For the stability against FaSSIF/P, the test samples were prepared by mixing stock solutions of peptide and pancreatin dissolved in FaSSIF solution (pH 6.5) in a weight ratio of 19:1. The test samples were incubated at 37° C. for 120 min. The sampling from test samples was proceeded at the predetermined time points (10, 30, 60, and 120 min) and stopped by 10% TFA solution.

[2] = molecular target: T5, human GLP-1 receptor (GLP-1R), expressed on CHO-K1 cells (human, UniProt P43220 24-463); assay: cell-based or functional assay
[3] = molecular target: T6, human glucagon receptor (GCGR), expressed on CHO-K1 cells (human, UniProt P47871 26-477); assay: cell-based or functional assay
[4] = molecular target: T2, human glucose-dependent insulinotropic …; assay: cell-based or functional assay
[5] = molecular target: T5, human GLP-1 receptor (GLP-1R), …; assay: cell-based or functional assay; remark: listed apart in the source
[6] = molecular target: T6, human glucagon receptor (GCGR), …; assay: cell-based or functional assay; remark: listed apart in the source
[7] = molecular target: T2, human glucose-dependent insulinotropic …; assay: cell-based or functional assay; remark: listed apart in the source
[8] = molecular target: T5, human GLP-1 receptor (GLP-1R), …; assay: cell-based or functional assay; remark: listed apart in the source
[9] = molecular target: T6, human glucagon receptor (GCGR), …; assay: cell-based or functional assay; remark: listed apart in the source
[10] = molecular target: T2, human glucose-dependent insulinotropic …; assay: cell-based or functional assay; remark: listed apart in the source
[11] = molecular target: T5, human GLP-1 receptor (GLP-1R), …; assay: cell-based or functional assay; remark: listed apart in the source
[12] = molecular target: T6, human glucagon receptor (GCGR), …; assay: cell-based or functional assay; remark: listed apart in the source
[13] = molecular target: T2, human glucose-dependent insulinotropic …; assay: cell-based or functional assay; remark: listed apart in the source

T6 sequence (P47871 26-477): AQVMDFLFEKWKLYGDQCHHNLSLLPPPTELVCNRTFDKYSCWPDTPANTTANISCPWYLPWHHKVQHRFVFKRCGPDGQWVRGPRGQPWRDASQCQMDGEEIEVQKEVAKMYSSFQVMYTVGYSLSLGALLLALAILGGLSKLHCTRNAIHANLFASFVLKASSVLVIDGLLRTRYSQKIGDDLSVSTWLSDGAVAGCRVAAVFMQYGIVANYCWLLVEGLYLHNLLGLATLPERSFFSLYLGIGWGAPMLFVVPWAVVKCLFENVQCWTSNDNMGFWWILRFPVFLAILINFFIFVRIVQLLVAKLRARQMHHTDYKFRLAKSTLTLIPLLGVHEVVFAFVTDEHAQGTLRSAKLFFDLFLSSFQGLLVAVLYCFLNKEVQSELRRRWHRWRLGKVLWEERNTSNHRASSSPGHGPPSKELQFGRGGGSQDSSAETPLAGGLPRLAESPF
T3 sequence (P43220 24-463): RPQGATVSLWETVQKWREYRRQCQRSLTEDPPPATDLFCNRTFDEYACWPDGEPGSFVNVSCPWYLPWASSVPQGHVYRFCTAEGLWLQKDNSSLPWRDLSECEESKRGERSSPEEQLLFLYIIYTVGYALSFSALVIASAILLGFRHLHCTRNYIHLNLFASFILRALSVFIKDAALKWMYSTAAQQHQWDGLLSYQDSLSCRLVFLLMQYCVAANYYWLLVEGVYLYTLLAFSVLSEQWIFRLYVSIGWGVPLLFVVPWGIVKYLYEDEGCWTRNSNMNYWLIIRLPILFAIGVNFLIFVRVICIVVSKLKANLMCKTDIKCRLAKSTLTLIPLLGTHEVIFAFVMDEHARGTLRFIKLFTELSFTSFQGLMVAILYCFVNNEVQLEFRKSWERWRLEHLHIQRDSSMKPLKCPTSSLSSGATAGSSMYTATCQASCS
T4 sequence (P47871 26-477): as the sequence (P47871 26-477) above

Molecule	Relative % to native ligand [2]	Relative % to native ligand [3]	Relative % to native ligand [4]	Ratio vs. GLP-1R [5]	Ratio vs. GLP-1R [6]	Ratio vs. GLP-1R [7]	Relative % to non-lipidated peptide [8]	Relative % to non-lipidated peptide [9]	Relative % to non-lipidated peptide [10]	other results
CSCC[C@H](NC(=O)[C@H](CCCCNC(=O)CCCC[C@@H]1SC[C@@H]2NC(=O)N[C@@H]21)NC(=O)[C@H](Cc1ccc(O)cc1)NC(=O)[C@H](CC(=O)O)NC(=O)[C@H](CC(C)C)NC(=O)[C@H](CC(C)C)NC(=O)[C@H](CCCCNC(=O)COCCOCCNC(=O)COCCOCCNC(=O)CC[C@H](NC(=O)CCCCCCCCCCCCCCCCC(=O)O)C(=O)O)NC(=O)[C@H](CO)NC(=O)[C@H](Cc1ccc(O)cc1)NC(=O)[C@H](CC(=O)O)NC(=O)[C@H](CO)NC(=O)[C@@H](NC(=O)[C@H](Cc1ccccc1)NC(=O)[C@@H](NC(=O)CNC(=O)[C@H](CCC(N)=O)NC(=O)C(C)(C)NC(=O)[C@@H](N)Cc1ccc(O)cc1)[C@@H](C)O)[C@@H](C)O)C(=O)N[C@@H](CCC(N)=O)C(=O)NC(C)(C)C(=O)N[C@@H](CC(=O)O)C(=O)N[C@@H](Cc1ccccc1)C(=O)N[C@H](C(=O)N[C@@H](CCC(N)=O)C(=O)N[C@@H](Cc1c[nH]c2ccccc12)C(=O)N[C@@H](CC(C)C)C(=O)N[C@@H](CC(C)C)C(=O)N[C@@H](CCC(=O)O)C(=O)NCC(=O)NCC(=O)N1CCC[C@H]1C(=O)N[C@@H](CO)C(=O)N[C@@H](CO)C(=O)NCC(=O)N[C@@H](C)C(=O)N1CCC[C@H]1C(=O)N1CCC[C@H]1C(=O)N1CCC[C@H]1C(=O)N[C@@H](CO)C(N)=O)C(C)C [compound 91] (H-Y[Aib]QGTFTSDYSK([AEEA-AEEA-γGlu-C18 diacid])LLDYK(Biotin)MQ[Aib]DFVQWLLEGGPSSGAPPPS-NH2; N-terminus and C-terminus assumed)										Ratio vs. GLP-1R, GLP-1R (human GLP-1R): 100; Relative % to native ligand, GLP-1R (human GLP-1R): 19%; Ratio vs. GLP-1R, GCGR (human GCGR): 135; Relative % to native ligand, GCGR (human GCGR): 26%; Ratio vs. GLP-1R, GIPR (human GIPR): 970; Relative % to native ligand, GIPR (human GIPR): 184%; half-life [1]: 33.3 min
H[Aib]QGTFTSDYSKLLDYMMQRDFVQWLLEGGPSSGAPPPSC-NH2 [Peptide No. 5-5]	1690%	260%	526%	100	15	31	100%	100%	100%	
Y[Aib]QGTFTSDYSK([AEEA-AEEA-γGlu-C18″])YLDYMMQRDFVQWLIEGGPSSGAPPPS-NH2 [Peptide No. 5-2D]	174%	3%	93%	100	1	54	35%	3%	13%	
Y[Aib]QGTFTSDYSK([AEEA-AEEA-γGlu-C18])LLDYMMQHDFVQWLLEGGPSSGAPPPS-NH2 [SEQ ID NO. 99]										Ratio vs. GLP-1R [11]: 100; Relative % to native ligand [11]: 35%; Ratio vs. GLP-1R [12]: 80; Relative % to native ligand [12]: 28%; Ratio vs. GLP-1R [13]: 3240; Relative % to native ligand [13]: 1130%
Y[Aib]QGTFTSDYSKYLDYMMARDFVQWLIEGGPSSGAPPPSC-NH2 [Peptide No. 5-1]	117%	6650%	13%	100	5660	11	100%	100%	100%	
Y[Aib]QGTFTSDYSKYLDYMMQRDFVQWLIEGGPSSGAPPPSC-NH2 [Peptide No. 5-2]	495%	91%	738%	100	18	149	100%	100%	100%	
Y[Aib]QGTFTSDYSKYLDYK([AEEA-AEEA-γGlu-C18″])MARDFVQWLIEGGPSSGAPPPS-NH2 [Peptide No. 5-1F]	61%	5030%	2%	100	8250	3	52%	76%	14%	
Y[Aib]QGTFTSDK([AEEA-AEEA-γGlu-C18″])SKYLDYMMARDFVQWLIEGGPSSGAPPPS-NH2 [Peptide No. 5-1E]	57%	74%	1%	100	130	1	48%	1%	5%	
H[Aib]QGTFTSDYSK([AEEA-AEEA-γGlu-C18″])LLDYMMQRDFVQWLLEGGPSSGAPPPS-NH2 [Peptide No. 5-5D]	305%	2%	212%	100	1	70	18%	1%	40%	
Y[Aib]QGTFTSDYSKLLDYMMQRDFVQWLLEGGPSSGAPPPSC-NH2 [Peptide No. 5-3]	638%	969%	7120%	100	152	1120	100%	100%	100%	
Y[Aib]QGTFTSDYSK([AEEA-AEEA-γGlu-C18″])YLDYMMARDFVQWLIEGGPSSGAPPPS-NH2 [Peptide No. 5-1D]	151%	55%	41%	100	36	27	129%	1%	323%	
